# Data from article PMC5608758, “A brain-targeting lipidated peptide for neutralizing RNA-mediated toxicity in Polyglutamine Diseases” (Scientific Reports, 2017).
# Entries after “also recorded” stand apart in the source; their conditions may differ. Non-standard residues stand in square brackets, D forms with d. Residues, ends and D or L forms follow the SMILES beside them. hArg = N=C(N)NCCCC[C@H](N)C(=O)O; Orn = NCCC[C@H](N)C(=O)O
# Columns and labels:
# expanded MJD CAG78 RNA = experiment: Isothermal titration calorimetry binding assay, expanded CAG RNA; conditions: ITC, 25 °C, 20 mM MOPS pH 7.0, 300 mM NaCl; 0.7 mM peptide titrated into 0.5 µM MJD CAG78 RNA; one binding site model; mean ± S.E.M., at least 3 independent experiments
# Experimental: Experiments were carried out using a MicroCal iTC200 isothermal titration calorimeter (GE Healthcare) at 25 °C. Data were analyzed using the Origin® scientific plotting software version 7 (Microcal Software Inc.). All RNAs and peptides were dissolved in binding buffer (20 mM MOPS, pH 7.0; 300 mM NaCl) and 0.7 mM of peptide was titrated into 0.5 µM of RNA for each experiment. The concentration of RNA was estimated with appropriate extinction coefficients at 260 nm on a Nanodrop 2000 (Thermo Scientific). A reference power of 8 μcal/s was used with an initial 0.5 µl of injection of peptide followed by 2 µl for all subsequent titrations points with a 60 sec initial equilibrium delay and 150 sec pause between injections. The samples were stirred at a speed of 1000 rpm throughout the experiment. The thermal titration data were fitted to the ‘one binding site model’ to determine the dissociation constant (KD). Each experiment was repeated at least 3 times with consistent results obtained.
# P3V8 = experiment: ITC; conditions: ITC (MicroCal iTC200): 20 mM MOPS pH 7.0, 300 mM NaCl, 25 C; 0.7 mM peptide titrated into 0.5 uM RNA; one-site model; errors are SEM, n>=3
# P3 (P3WT) = experiment: ITC; conditions: ITC (MicroCal iTC200): 20 mM MOPS pH 7.0, 300 mM NaCl, 25 C; 0.7 mM peptide titrated into 0.5 uM RNA; one-site model; errors are SEM, n>=3
# P3MT1 = experiment: ITC; conditions: ITC (MicroCal iTC200): 20 mM MOPS pH 7.0, 300 mM NaCl, 25 C; 0.7 mM peptide titrated into 0.5 uM RNA; one-site model; errors are SEM, n>=3
# P3MT2 = experiment: ITC; conditions: ITC (MicroCal iTC200): 20 mM MOPS pH 7.0, 300 mM NaCl, 25 C; 0.7 mM peptide titrated into 0.5 uM RNA; one-site model; errors are SEM, n>=3
# P3MT3 = experiment: ITC; conditions: ITC (MicroCal iTC200): 20 mM MOPS pH 7.0, 300 mM NaCl, 25 C; 0.7 mM peptide titrated into 0.5 uM RNA; one-site model; errors are SEM, n>=3
# P3MT4 = experiment: ITC; conditions: ITC (MicroCal iTC200): 20 mM MOPS pH 7.0, 300 mM NaCl, 25 C; 0.7 mM peptide titrated into 0.5 uM RNA; one-site model; errors are SEM, n>=3
# P3MT5 = experiment: ITC; conditions: ITC (MicroCal iTC200): 20 mM MOPS pH 7.0, 300 mM NaCl, 25 C; 0.7 mM peptide titrated into 0.5 uM RNA; one-site model; errors are SEM, n>=3
# P3V1 = experiment: ITC; conditions: ITC (MicroCal iTC200): 20 mM MOPS pH 7.0, 300 mM NaCl, 25 C; 0.7 mM peptide titrated into 0.5 uM RNA; one-site model; errors are SEM, n>=3
# P3V2 = experiment: ITC; conditions: ITC (MicroCal iTC200): 20 mM MOPS pH 7.0, 300 mM NaCl, 25 C; 0.7 mM peptide titrated into 0.5 uM RNA; one-site model; errors are SEM, n>=3
# P3V3 = experiment: ITC; conditions: ITC (MicroCal iTC200): 20 mM MOPS pH 7.0, 300 mM NaCl, 25 C; 0.7 mM peptide titrated into 0.5 uM RNA; one-site model; errors are SEM, n>=3
# P3V4 = experiment: ITC; conditions: ITC (MicroCal iTC200): 20 mM MOPS pH 7.0, 300 mM NaCl, 25 C; 0.7 mM peptide titrated into 0.5 uM RNA; one-site model; errors are SEM, n>=3
# P3V5 = experiment: ITC; conditions: ITC (MicroCal iTC200): 20 mM MOPS pH 7.0, 300 mM NaCl, 25 C; 0.7 mM peptide titrated into 0.5 uM RNA; one-site model; errors are SEM, n>=3
# P3V6 = experiment: ITC; conditions: ITC (MicroCal iTC200): 20 mM MOPS pH 7.0, 300 mM NaCl, 25 C; 0.7 mM peptide titrated into 0.5 uM RNA; one-site model; errors are SEM, n>=3
# P3V7 = experiment: ITC; conditions: ITC (MicroCal iTC200): 20 mM MOPS pH 7.0, 300 mM NaCl, 25 C; 0.7 mM peptide titrated into 0.5 uM RNA; one-site model; errors are SEM, n>=3
# P3V9 = experiment: ITC; conditions: ITC (MicroCal iTC200): 20 mM MOPS pH 7.0, 300 mM NaCl, 25 C; 0.7 mM peptide titrated into 0.5 uM RNA; one-site model; errors are SEM, n>=3
compound,measurement,setting,value
CC[C@H](C)[C@H](NC(=O)CNC(=O)[C@H](CCCCN)NC(=O)[C@H](CO)NC(=O)[C@H](CCCN)NC(=O)CNC(=O)[C@H](CC(=O)O)NC(C)=O)C(=O)N[C@@H](C)C(=O)N[C@@H](Cc1ccc(O)cc1)C(=O)N[C@H](C(=O)N[C@@H](CCC(=O)O)C(=O)N[C@@H](Cc1ccccc1)C(=O)N[C@@H](CCCCN)C(N)=O)[C@@H](C)CC [P3V16] (Ac-DG[Orn]SKGIAYIEFK-NH2),KD,expanded MJD CAG78 RNA,No binding
CC[C@H](C)[C@H](NC(=O)CNC(=O)[C@H](CCCCN)NC(=O)[C@H](CO)NC(=O)[C@H](CCCCNC(=N)N)NC(=O)CNC(=O)[C@H](CC(=O)O)NC(C)=O)C(=O)N[C@@H](C)C(=O)N[C@@H](Cc1ccc(O)cc1)C(=O)N[C@H](C(=O)N[C@@H](CCC(=O)O)C(=O)N[C@@H](Cc1ccccc1)C(=O)N[C@@H](CCCCN)C(N)=O)[C@@H](C)CC [P3V14] (Ac-DG[hArg]SKGIAYIEFK-NH2),KD,expanded MJD CAG78 RNA,No binding
MJD CAG27 RNA (unexpanded),Kd,P3V8,2.19 µM
CC[C@H](C)[C@H](NC(=O)CNC(=O)[C@H](CCCN)NC(=O)[C@H](CO)NC(=O)[C@H](CCCCN)NC(=O)CNC(=O)[C@H](CC(=O)O)NC(C)=O)C(=O)N[C@@H](C)C(=O)N[C@@H](Cc1ccc(O)cc1)C(=O)N[C@H](C(=O)N[C@@H](CCC(=O)O)C(=O)N[C@@H](Cc1ccccc1)C(=O)N[C@@H](CCCCN)C(N)=O)[C@@H](C)CC [P3V17] (Ac-DGKS[Orn]GIAYIEFK-NH2),KD,expanded MJD CAG78 RNA,No binding
Ac-DGRSRGIAYIEFK-NH2 [P3V9],Kd,expanded MJD CAG78 RNA,2.34 ± 0.49 µM
"MJD CAA/G78 RNA (expanded, interrupted)",Kd,P3V8,2.94 µM
Ac-DGKSKGIAYIEFKDGKSKGIAYIEFK-NH2 [P3V20],KD,expanded MJD CAG78 RNA,No binding; also recorded: did not show any binding
MJD CAG78 RNA (expanded),Kd,P3 (P3WT),8.37 µM
same,Kd,P3MT1,31.3 µM
same,Kd,P3MT2,101 µM
same,Kd,P3MT3,16.6 µM
same,Kd,P3MT4,17.4 µM
same,Kd,P3MT5,51.3 µM
same,Kd,P3V1,2 µM
same,Kd,P3V2,2.21 µM
same,Kd,P3V3,1.74 µM
same,Kd,P3V4,4.44 µM
same,Kd,P3V5,0.86 µM
same,Kd,P3V6,23.8 µM
same,Kd,P3V7,3.67 µM
same,Kd,P3V8,0.33 µM
same,Kd,P3V9,2.34 µM
Ac-DGKSKGIAYIEFKGDGKSKGIAYIEFK-NH2 [P3V21],KD,expanded MJD CAG78 RNA,No binding; also recorded: did not show any binding
CC[C@H](C)[C@H](NC(=O)CNC(=O)[C@H](CCCCNC(=N)N)NC(=O)[C@H](CO)NC(=O)[C@H](CCCCN)NC(=O)CNC(=O)[C@H](CC(=O)O)NC(C)=O)C(=O)N[C@@H](C)C(=O)N[C@@H](Cc1ccc(O)cc1)C(=O)N[C@H](C(=O)N[C@@H](CCC(=O)O)C(=O)N[C@@H](Cc1ccccc1)C(=O)N[C@@H](CCCCN)C(N)=O)[C@@H](C)CC [P3V15] (Ac-DGKS[hArg]GIAYIEFK-NH2),KD,expanded MJD CAG78 RNA,No binding
